Measurements reported in patent US20240392013A1, “IL1RAP ANTIBODIES AND USES THEREOF” (STELEXIS THERAPEUTICS, LLC, priority 2021, published 2024).

Assays:
[1] = test system: IL1-induced downstream signaling (phospho-NFκB) in K562 cells; assay: IL1 signaling in CML (K562) cells, Western blot; format: cell-based, human; settings: antibody 20 μg/ml, IL1β 100 ng/ml
Protocol: (§1) AML patient samples or cancer cells (AML, chronic myelogenous leukemia (CML), pancreatic, head and neck squamous cell carcinoma (HNSCC), bladder, non-small-cell lung carcinoma (NSCLC), colorectal and triple-negative breast cancer (TNBC)) were seeded in 6-well plates (5×10^5 cells/well) and incubated overnight at 37° C./5% CO2 in humified incubator. In experiments conducted in cancer cell lines, cells were washed 2× with PBS and serum-starved for 3 hours. Following, cells were treated with IL1RAP antibodies at concentration of 20 μg/ml and incubated for 1 h at 37° C./5% CO2 in humidified incubator. After 1 h, cells were treated with IL1β (Invivogen, cat: rcyec-hil1b), IL33 (Adipogen, cat: AG-40B-0160-C010) or IL36 cytokines (R@D, cat: 6836IL) at 100 ng/ml and incubated for 15 more minutes. Cells were harvested on ice after 1× wash with cold PBS and were centrifuged for 5 minutes at 5000 rpm at 4° C. Cells were then lysed with NP-40 buffer for 5 minutes on ice and centrifuged for 15 minutes at 15000 rpm at 4° C. Supernatants were collected and protein concentrations were determined by BCA (Thermofisher, Cat #PI23225). […] After 3× washes, ECL was applied (Thermofisher, Cat #32106) and proteins were detected after exposure to autoradioraphic films (Worldwide medical products, Cat #41101001) and protein intensity was quantitated using ImageJ software.

[2] = test system: IL1-induced downstream signaling (phospho-p38, NFκB) in THP-1 cells; assay: IL1 signaling in AML (THP-1) cells, Western blot; format: cell-based, human; settings: antibody 20 μg/ml, IL1β 100 ng/ml
Protocol: as §1

[3] = test system: IL1-induced downstream signaling (phospho-ERK, AKT, p38, NFκB) in A6L, CAL33, 5637, A549, Colo205, HCC70 cells; assay: IL1 signaling in solid tumor cancer cells, Western blot; format: cell-based; settings: antibody 20 μg/ml
Protocol: as §1

[4] = test system: IL33-induced downstream signaling (phospho-ERK, p38, NFκB) in AML patient samples; assay: IL33 signaling in AML patient samples, Western blot; format: cell-based, human; settings: antibody 20 μg/ml, IL33 100 ng/ml
Protocol: as §1

B1: 74804_12A21B: anti-IL1RAP mAb; VH SEQ ID NO:6, VL SEQ ID NO:23, κ light chain (antibody, V domains shown)
VH: QVQLLQSGAEVKKPGSSVKVSCKASGGTFSIYAIDWVRQAPGQGLEWMGGIIPIFGTANSAQKFQGRVTITADKSTSTAYMELSSLRSEDTAVYYCARNGATSDAFDMWGQGTMVTVSS
VL: EIVLTQSPGTLSLSPGERATLSCRASLSVSSNYLAWFQQRPGQAPRLLIHGVSRRATGIPDRFSGSGSGTDFTLTISRLEPEDFAVYYCQQYGSSPLTFGGGTKVEIK
modifications: 74804_12A21B VH and 74804_29D13A VH; 74804_12A21B VL
For B1, the “Inhibition of IL1 signaling (phosphorylation of NFκB)” value [1] was “inhibited IL1 signaling in these CML (K562) cells”, the “Inhibition of IL1 signaling (phosphorylation of p38 and NFκB)” value [2] was “inhibited IL1 signaling in these AML (THP-1) cells” and the “Inhibition of IL1 signaling (phosphorylation of ERK, AKT, p38 and NFκB)” value [3] was “inhibited IL1 signaling in solid tumor cancer cells”. For the same molecule, the “Inhibition of IL33 signaling (phosphorylation of ERK, p38 and NFκB)” value [4] was “inhibited IL33 signaling in AML patient samples”.
